Consider two proteins from article PMC4383598, “Role of Cysteine Residues in the Structure, Stability, and Alkane Producing Activity of Cyanobacterial Aldehyde Deformylating Oxygenase” (PLoS ONE, 2015).

This data set concerns the molecule itself. The experiment in a line: SEC; Superdex 200pg (124 mL), 500 uL of protein at 2.5 mg/mL, 0.5 mL/min, 10 mM sodium phosphate pH 7.2, 150 mM NaCl; fraction of dimer against monomer.

B1: Aldehyde deformylating oxygenase from Nostoc punctiforme PCC 73102, C71S mutant (enzyme, UniProt B2J1M1 1-232, looked up)
chain: MQQLTDQSKELDFKSETYKDAYSRINAIVIEGEQEAHENYITLAQLLPESHDELIRLSKMESRHKKGFEASGRNLAVTPDLQFAKEFFSGLHQNFQTAAAEGKVVTCLLIQSLIIECFAIAAYNIYIPVADDFARKITEGVVKEEYSHLNFGEVWLKEHFAESKAELELANRQNLPIVWKMLNQVEGDAHTMAMEKDALVEDFMIQYGEALSNIGFSTRDIMRLSAYGLIGA
notes: Aldehyde deformylating oxygenase of Nostoc punctiforme PCC 73102; codon-optimised synthetic gene; Same construct as m1 with the mutation; source: E. coli BL21(DE3)pLysS (pET-15b-AD variant), purified (Ni-agarose, dialysis)
In the case of B1, the “stoichiometry N” value is 2.

B2: Aldehyde deformylating oxygenase from Nostoc punctiforme PCC 73102, C71A mutant (enzyme, UniProt B2J1M1 1-232, looked up)
chain: MQQLTDQSKELDFKSETYKDAYSRINAIVIEGEQEAHENYITLAQLLPESHDELIRLSKMESRHKKGFEAAGRNLAVTPDLQFAKEFFSGLHQNFQTAAAEGKVVTCLLIQSLIIECFAIAAYNIYIPVADDFARKITEGVVKEEYSHLNFGEVWLKEHFAESKAELELANRQNLPIVWKMLNQVEGDAHTMAMEKDALVEDFMIQYGEALSNIGFSTRDIMRLSAYGLIGA
notes: as for B1
Take B2: the “stoichiometry N” value is 2.
